# B1: Khc tail (Khc 855-975) (domain or fragment)
# chain: not shown
# notes: 15N-labeled (13C,15N for assignment) in the NMR experiments; used unlabeled in microtubule pelleting; also called tail domain
# B2: GST-Khc 855-975 (domain or fragment)
# chain: not shown
# What was measured:
# [1] = target: T1, Khc motor domain (Khc 1-365) (Drosophila, UniProt P17210 1-365); assay: NMR titration; 1H-15N HSQC of 50 µM 15N-labeled Khc 855–975 at 298 K, 25 mM NaPO4 pH 6.5, 150 mM NaCl; unlabeled partners added, with or without U10 RNA; details: both partners purified
# T1 construct: Kinesin heavy chain (Khc), Drosophila, amino acids 1-365 (motor domain); GST removal with 3C protease is stated for NMR; for the pull-down the prey is printed as Khc 1–365 without GST; source: E. coli BL21-CodonPlus(DE3)-RIL, purified (GSTrap, SEC)
# T1 sequence (looked up): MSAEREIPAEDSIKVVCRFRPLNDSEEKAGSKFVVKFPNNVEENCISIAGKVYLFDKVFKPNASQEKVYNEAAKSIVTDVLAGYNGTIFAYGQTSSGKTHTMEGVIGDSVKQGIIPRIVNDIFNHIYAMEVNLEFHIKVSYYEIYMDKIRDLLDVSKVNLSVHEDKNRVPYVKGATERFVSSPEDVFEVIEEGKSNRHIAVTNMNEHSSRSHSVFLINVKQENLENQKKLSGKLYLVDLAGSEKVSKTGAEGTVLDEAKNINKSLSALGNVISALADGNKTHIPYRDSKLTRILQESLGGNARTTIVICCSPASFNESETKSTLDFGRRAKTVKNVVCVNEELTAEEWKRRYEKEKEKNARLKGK
# [2] = target: T1, Khc motor domain (Khc 1-365); assay: pull-down; GST-Khc 855–975 (5 or 10 µM) as bait on glutathione Sepharose, 50 µM Khc 1–365 as prey, Tm1 1–335 at 5 to 15 µM; GF150 buffer, 4 °C; details: both partners purified
Binder,binding result [1],binding result [2]
B1,binds,–
B2,–,binds

# From PMC10948360, “Tropomyosin 1-I/C coordinates kinesin-1 and dynein motors during oskar mRNA transport” (Nature Structural & Molecular Biology, 2024)
